Results published in article PMC2193914.

Biological target: rat KLRE1-HA (short splice variant), in transiently transfected 293T cells (rat) (UniProt Q80ZC8)
Assay: SDS-PAGE under nonreducing and reducing conditions with Western blot

- stoichiometry N: 2
Substance: rat KLRE1-HA (short splice variant), in transiently transfected 293T cells (from UniProt Q80ZC8 1-226) (receptor)
